The record followed here is PMC2921123 (2010).

The Kd is the free concentration of one partner at which half of the binding sites on the other are occupied at equilibrium, for simple one-to-one binding. Read a low Kd as tighter binding.

What all share (assay): SPR
(Surface plasmon resonance follows binding to a sensor surface in real time, without labels.)

Experiment [1] concerns the target Fc portion of a human BCR μ-chain (Fcμ, amino acid residues 258-586), corresponding to Cμ2-Cμ4 (human).
Experiment [2] concerns the target human Igαβ heterodimer, extracellular domains fused with a leucine zipper (Igαβ-LZ) (human) (UniProt P11912).
A further experiment has as its target T1, Fcμ Fc (Homo sapiens, UniProt P01871).
T1 chain: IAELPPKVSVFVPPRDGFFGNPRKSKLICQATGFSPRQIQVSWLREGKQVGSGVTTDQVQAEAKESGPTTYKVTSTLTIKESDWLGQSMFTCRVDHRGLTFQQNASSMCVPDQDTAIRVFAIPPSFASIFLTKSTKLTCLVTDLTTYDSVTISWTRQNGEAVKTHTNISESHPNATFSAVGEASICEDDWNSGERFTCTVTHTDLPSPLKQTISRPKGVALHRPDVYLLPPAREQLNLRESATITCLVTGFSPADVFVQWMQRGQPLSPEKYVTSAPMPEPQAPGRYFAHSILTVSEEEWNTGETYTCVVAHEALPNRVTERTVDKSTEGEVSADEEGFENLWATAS

Chain of Fc portion of a human BCR μ-chain (Fcμ, amino acid residues 258-586), corresponding to Cμ2-Cμ4 (human) (P01871 whole entry, the tested form may be a part): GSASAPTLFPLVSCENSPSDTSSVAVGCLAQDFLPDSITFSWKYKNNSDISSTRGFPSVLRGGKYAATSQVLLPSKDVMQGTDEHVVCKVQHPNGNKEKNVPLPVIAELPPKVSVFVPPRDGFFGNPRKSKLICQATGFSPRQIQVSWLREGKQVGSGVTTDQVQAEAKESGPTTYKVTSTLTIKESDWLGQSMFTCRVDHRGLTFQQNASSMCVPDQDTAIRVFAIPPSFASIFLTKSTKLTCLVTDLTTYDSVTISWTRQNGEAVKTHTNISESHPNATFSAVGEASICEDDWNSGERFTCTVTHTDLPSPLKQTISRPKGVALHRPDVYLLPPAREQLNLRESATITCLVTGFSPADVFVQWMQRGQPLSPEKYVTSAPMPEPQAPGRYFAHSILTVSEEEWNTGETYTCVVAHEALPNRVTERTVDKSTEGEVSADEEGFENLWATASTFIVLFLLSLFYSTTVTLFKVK

Regarding “human Igα extracellular portion, N60A (α3) (from UniProt P11912 33-143) (domain or fragment)”, in experiment [1], the fold increase of binding against the wild type is 2 fold.

For “human IgM (from UniProt P01591 23-159) (antibody)”, the Kd in experiment [2] was above 10 µM.

For “human Igβ extracellular portion, Q123A/Q124A/K125A (β4) (from UniProt P40259 26-159) (domain or fragment)”, in experiment [1], the fold reduction of binding against the wild type amounted to 2 fold.

Molecule “human Igβ extracellular portion, R55A/K56A/R57A (β1) (from UniProt P40259 26-159) (domain or fragment)” had a fold reduction of binding against the wild type in experiment [1] of 6 fold.

B1: Igαβ (protein)
chain 1: LWMHKVPASLMVSLGEDAHFQCPHNSSNNANVTWWRVLHGNYTWPPEFLGPGEDPNGTLIIQNVNKSHGGIYVCRVQEGNESYQQSCGTYLRVRQPPPRPFLDMGEGTKNRIITAEGIILLFCAVVPGTLLLFRKRWQNEKLGLDAGDEYEDENLYEGLNLDDCSMYEDISRGLQGTYQDVGSLNIGDVQLEKP
chain 2: ARSEDRYRNPKGSACSRIWQSPRFIARKRGFTVKMHCYMNSASGNVSWLWKQEMDENPQQLKLEKGRMEESQNESLATLTIQGIRFEDNGIYFCQQKCNNTSEVYQGCGTELRVMGFSTLAQLKQRNTLKDGIIMIQTLLIILFIIVPIFLLLDKDDSKAGMEEDHTYEGLDIDQTATYEDIVTLRTGEVKWSVGEHPGQE
B1 came in with a Kd in the experiment with Fcμ Fc of around 2 µM.
